Blank lines part the entries; values can stand above or below the binder they belong to.
How the values were obtained:
hIL-6R-hFc [1] = biological target: T1, hIL-6R-hFc (human, UniProt P08887 20-358); test: competition ELISA: antibody premixed with serial dilutions of hIL-6R-hFc, free antibody detected on hIL-6R-hFc-coated plate
T1 construct: also called dimeric hIL-6R; Dimer; not shown: human Fc (hFc)
T1 sequence: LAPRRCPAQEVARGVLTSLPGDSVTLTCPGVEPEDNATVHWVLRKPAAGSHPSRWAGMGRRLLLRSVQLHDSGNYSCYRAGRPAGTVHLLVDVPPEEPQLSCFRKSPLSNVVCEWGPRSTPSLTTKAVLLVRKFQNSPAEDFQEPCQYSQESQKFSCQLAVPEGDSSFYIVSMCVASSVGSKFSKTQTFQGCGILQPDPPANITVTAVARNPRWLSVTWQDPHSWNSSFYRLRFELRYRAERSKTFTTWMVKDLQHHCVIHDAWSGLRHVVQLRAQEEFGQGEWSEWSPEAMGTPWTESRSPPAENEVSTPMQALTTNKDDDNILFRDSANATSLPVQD

[2] = biological target: T2, recombinant hIL-6R protein, monomeric form (human, UniProt P08887 20-358); test: SPR (BIAcore), captured antibody, monomeric hIL-6R
T2 construct: also called monomeric hIL-6R; Human IL6R
T2 sequence: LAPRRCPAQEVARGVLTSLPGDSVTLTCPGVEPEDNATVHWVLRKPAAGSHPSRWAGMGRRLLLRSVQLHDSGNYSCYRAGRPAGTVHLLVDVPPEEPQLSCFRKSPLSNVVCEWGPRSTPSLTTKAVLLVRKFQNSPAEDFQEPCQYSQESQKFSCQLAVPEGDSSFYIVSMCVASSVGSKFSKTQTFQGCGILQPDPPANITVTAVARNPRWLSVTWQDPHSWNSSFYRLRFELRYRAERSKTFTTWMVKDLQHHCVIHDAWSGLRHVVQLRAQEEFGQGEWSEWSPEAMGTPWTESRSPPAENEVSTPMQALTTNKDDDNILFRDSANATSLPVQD
Procedure: (§1) More specifically, the affinity of the antibodies for human IL-6R was measured using a BIAcore® 2000 or BIAcore® 3000. The antibody was captured on an anti-mouse IgG surface and exposed to various concentrations of recombinant hIL-6R protein either in monomeric or dimeric form. Kinetic analysis using BIAevaluation™ software was performed to obtain the association and dissociation rate constants.

hIL-6R-hFc [3] = biological target: T1, hIL-6R-hFc; test: SPR (BIAcore), captured antibody, dimeric hIL-6R
Procedure: as §1

[4] = biological target: T3, hIL-6R recombinant protein (plate-coated, Example 5) (human, UniProt P08887 20-358, limits assumed); test: SPR (BIAcore) competition on hIL-6R; competitor: control antibody
T3 construct: also called antigen
T3 sequence: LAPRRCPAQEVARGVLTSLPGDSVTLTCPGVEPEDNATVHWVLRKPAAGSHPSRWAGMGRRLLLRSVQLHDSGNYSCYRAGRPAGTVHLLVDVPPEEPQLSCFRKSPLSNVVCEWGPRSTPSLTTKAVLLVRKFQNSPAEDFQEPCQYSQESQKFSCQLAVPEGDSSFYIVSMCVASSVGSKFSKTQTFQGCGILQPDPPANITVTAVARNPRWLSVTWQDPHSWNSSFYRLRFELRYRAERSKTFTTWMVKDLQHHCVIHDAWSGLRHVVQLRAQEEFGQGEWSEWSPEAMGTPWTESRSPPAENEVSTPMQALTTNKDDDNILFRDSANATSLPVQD

[5] = biological target: T2, recombinant hIL-6R protein, monomeric …; test: SPR (BIAcore), antibody captured on goat anti-mouse Fc, monomeric IL-6R 1.25-40 nM injected
Procedure: (§2) Four antibodies were tested for cross-reactivity to monkey IL-6R recombinant protein using BIAcore™ technology. Briefly, a biosensor chip on which goat anti-mouse Fc polyclonal antibody was immobilized was used to present anti-hIL-6R monoclonal antibodies to a density of about 75 RU. […] The binding of the receptor to the antibody and the dissociation of the bound complex were monitored in real-time.

[6] = biological target: T4, hIL-6R on hIL-6-responsive human cells (XG-1 myeloma line, HepG2 hepatoma line) (human, UniProt P08887 20-468); test: cell-based or functional assay
T4 sequence (looked up): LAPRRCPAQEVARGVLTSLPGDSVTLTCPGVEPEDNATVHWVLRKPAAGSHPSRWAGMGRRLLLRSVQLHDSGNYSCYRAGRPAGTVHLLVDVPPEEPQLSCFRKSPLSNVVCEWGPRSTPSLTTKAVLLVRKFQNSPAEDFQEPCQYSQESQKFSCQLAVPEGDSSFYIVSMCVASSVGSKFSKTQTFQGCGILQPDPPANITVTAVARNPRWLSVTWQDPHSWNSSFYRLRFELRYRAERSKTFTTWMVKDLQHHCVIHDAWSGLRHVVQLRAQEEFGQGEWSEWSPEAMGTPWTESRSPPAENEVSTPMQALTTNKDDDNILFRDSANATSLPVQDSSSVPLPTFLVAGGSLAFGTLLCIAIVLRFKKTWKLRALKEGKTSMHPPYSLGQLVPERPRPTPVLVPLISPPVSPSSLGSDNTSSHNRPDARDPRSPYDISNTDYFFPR

[7] = biological target: T3, hIL-6R recombinant protein …; test: competition ELISA on hIL-6R-coated plate presaturated with competitor control antibody; test antibody 50 ng/ml
Procedure: An antibody binding competition immunoassay was performed using as a control humanized antibody to human IL-6R. Briefly, a 96-well immunosorbent plate was coated with 20 ng per well hIL-6R recombinant protein overnight at 4° C. […] After one hour of additional binding, the free antibody was washed away and the plate-bound antibody was detected with HRP-conjugated goat anti-mouse IgG or IgA, polyclonal antibody and the plate was developed using chromatic HRP substrates and absorbance at 450 nm was recorded.

[8] = biological target: T2, recombinant hIL-6R protein, monomeric …; test: Kinexa solution-phase competition immunoassay, monomeric hIL-6R
[9] = biological target: T2, recombinant hIL-6R protein, monomeric …; test: SPR (BIAcore), antibody captured on anti-mouse IgG surface, monomeric hIL-6R
Procedure: as §1

[10] = biological target: T2, recombinant hIL-6R protein, monomeric …; test: SPR (BIAcore), captured mouse-IgG antibody, monomeric hIL-6R 1.56-12.5 nM
Source text: Briefly, a biosensor chip on which goat anti-mouse Fc polyclonal antibody was immobilized was used to present anti-hIL-6R monoclonal antibodies to a density of about 75 RU. […] The binding of the receptor to the antibody and the dissociation of the bound complex were monitored in real-time. Both association rate constant (ka) and dissociate rate constant (kd) were obtained, and KD calculated (Table 4).
The binding affinity to monomeric hIL-6R of four antibodies having mouse IgG, human IgG1 or human IgG4 (wild-type and modified) were determined using BIAcore™ as described above except a goat anti-human Fc polyclonal antibody surface was used to capture hIgG antibodies.

hIL-6R-hFc [11] = biological target: T1, hIL-6R-hFc; test: blocking ELISA: 100 pM hIL-6R-hFc premixed with varied antibody, free hIL-6R-hFc captured on hIL-6-coated plate
Procedure: This plate was used to capture free hIL-6R-hFc from antibody sample solutions, and the amount of captured hIL-6R-hFc was quantified according to the standard curve. The sample solutions were composed of a constant amount of hIL-6R-hFc recombinant protein (100 pM) and varying amounts of antibody, either in crude hybridoma condition medium or as purified antibody protein, ranging from 0 to about 50 nM in serial dilutions. The antibody-antigen mixtures were incubated at room temperature for ˜2 hours to allow antibody-antigen binding to reach equilibrium. […] After 1 hour binding, the plate was washed and bound hIL-6R-hFc was detected using HRP-conjugated goat anti-hFc polyclonal antibodies (Jackson Immuno Research), and developed using TMB substrate (BD Pharmigen).

hIL-6R-hFc [12] = biological target: T1, hIL-6R-hFc; test: SPR (BIAcore), antibody captured on anti-mouse IgG surface, dimeric hIL-6R
Procedure: as §1

[13] = biological target: T4, hIL-6R on hIL-6-responsive human cells …; test: cell-based or functional assay; remark: listed apart in the source
[14] = biological target: T2, recombinant hIL-6R protein, monomeric …; test: SPR (BIAcore), captured antibody, monomeric hIL-6R; remark: listed apart in the source
Procedure: as §2

[15] = biological target: T5, Recombinant monkey monomeric IL-6R protein (Macaca fascicularis, extracellular domain) (Macaca fascicularis, UniProt P08887 21-330 (human entry)); test: SPR (BIAcore), antibody captured on goat anti-mouse Fc, monomeric monkey IL-6R injected
T5 construct: also called Monkey IL6R; monkey IL-6R
T5 chain: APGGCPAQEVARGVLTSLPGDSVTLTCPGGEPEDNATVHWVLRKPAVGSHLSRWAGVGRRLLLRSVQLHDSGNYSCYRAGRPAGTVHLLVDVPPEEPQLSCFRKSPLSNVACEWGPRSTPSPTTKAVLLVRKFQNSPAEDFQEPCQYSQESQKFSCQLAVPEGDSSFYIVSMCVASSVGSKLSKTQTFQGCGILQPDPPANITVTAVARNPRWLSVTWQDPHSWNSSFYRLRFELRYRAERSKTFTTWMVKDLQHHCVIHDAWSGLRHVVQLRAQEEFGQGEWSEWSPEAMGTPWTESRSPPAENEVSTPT
Procedure: as §2

hIL-6R-hFc [16] = biological target: T1, hIL-6R-hFc; test: SPR (BIAcore): hIL-6R-hFc captured, antibody injected, then 50 nM hIL-6; percent reduction in hIL-6 binding

- IC50 (hIL-6R-hFc [1]): 360 pM
- Kd [2]: 987 pM
- Kd (hIL-6R-hFc [3]): 785 pM
B1: 248982-13-1-E5 (antibody, V domains shown)
VH: QVQLVQSGGDLVQPGRSLRLSCAASGFTFDDYAMHWVRQTPGKGLEWVSGISWNSGAIGYADSVKGRFTISRDNAKNSLYLQMNSLRAEDTALYYCTKEEVGATVDYFYFYGMDVWGQGTTVTVSS
VL: EIVMTQSPATLSLSPGERATLSCWASQSVSNYLAWYQQKPGQAPRLLIYDASNRATGIPARFSGSGSGTDFTLTISSLEPEDFAVYYCQQRSNWPTFGQGTKVEIK

- % reduction of binding by control antibody [4]: 12%
- IC50 (hIL-6R-hFc [1]): 41 pM
- Kd [5]: 240 pM
- koff [5]: 6.18e-05 s⁻¹
- kon [5]: 257000 M⁻¹ s⁻¹
- HepG2/STAT3 luciferase assay IC50 [6]: 578 pM
- % reduction of binding by control antibody [7]: 3%
- Kd [8]: 197 pM
- Kd [9]: 225 pM
- Kd [10]: 225 pM
- koff [10]: 7.66e-05 s⁻¹
- kon [10]: 341000 M⁻¹ s⁻¹
- IC50 (hIL-6R-hFc [11]): 1100 pM
- Kd (hIL-6R-hFc [12]): 70 pM
- HepG2/Stat3 Luciferase activity IC50 [13]: 578 pM
- XG-1 cell proliferation Inhibition IC50 [13]: 1800 pM
- Kd [14]: 241 pM
- binding result [15]: no binding (tested: 1.25-40 nM)
- hIL6/hIL6R Binding Inhibition (%) (hIL-6R-hFc [16]): 34%
B2: VV1G4-7 (antibody, IgG2a, V domains shown)
VH: QVQLVQSGAEVKEPGASVKVSCKASGYTFTSYDIIWVRQATGQGLEWMGWMNPNSGNTGYTQNLQGRVTLTRNTSITTVYMELSSLSSEDTAVYYCARDYSSHYYGLDVWGQGTTVTVSS
VL: DIQLTQSPSFLSTSIGDRVTITCWASQDISNYLAWYQQKPGKAPKLLIFVASTLQSGVPSRFSGSGSGTEFTLTISSLQPEDFATYYCQQFNSYPLTFGGGTKVEIK
notes: Human variable regions with mouse constant region
